One substance from US20200062861A1 can be followed below.

This assay deals with Herceptin-GlcNAc. Briefly: cell-based or functional assay.

As for EndoSz-D234M (enzyme), the time dependent transglycosylation (HPLC, percent of Herceptin-GlcNAc remaining) came to 0%.
